# Experimental data from patent publication US20240181006A1, “POLYPEPTIDES BINDING ADAMTS5, MMP13 AND AGGRECAN” (Merck Patent GmbH, priority 2017, published 2024).
# T1: human ADAMTS5 (Homo sapiens, UniProt Q9UNA0)
# T1 sequence (Q9UNA0 262-930): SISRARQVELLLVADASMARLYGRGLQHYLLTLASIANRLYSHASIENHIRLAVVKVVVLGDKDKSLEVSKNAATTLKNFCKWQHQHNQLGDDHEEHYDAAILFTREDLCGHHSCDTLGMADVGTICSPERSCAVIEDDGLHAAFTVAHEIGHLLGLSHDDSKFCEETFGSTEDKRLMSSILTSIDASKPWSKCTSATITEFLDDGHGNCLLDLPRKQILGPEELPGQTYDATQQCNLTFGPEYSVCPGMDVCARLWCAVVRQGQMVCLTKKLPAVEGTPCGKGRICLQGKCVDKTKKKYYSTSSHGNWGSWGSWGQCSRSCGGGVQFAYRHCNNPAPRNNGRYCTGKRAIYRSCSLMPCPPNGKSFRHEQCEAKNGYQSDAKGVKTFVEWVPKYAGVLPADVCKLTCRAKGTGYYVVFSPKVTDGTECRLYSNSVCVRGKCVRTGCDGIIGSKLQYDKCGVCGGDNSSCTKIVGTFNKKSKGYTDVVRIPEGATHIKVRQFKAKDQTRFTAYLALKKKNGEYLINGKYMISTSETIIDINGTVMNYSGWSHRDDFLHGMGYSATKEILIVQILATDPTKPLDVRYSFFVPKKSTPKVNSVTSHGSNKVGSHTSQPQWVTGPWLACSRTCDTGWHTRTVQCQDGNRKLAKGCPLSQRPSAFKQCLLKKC
# T2: human ADAMTS4 (Homo sapiens, UniProt O75173)
# T2 construct: purchased R&D Systems 4307-AD
# T2 sequence (O75173 213-837): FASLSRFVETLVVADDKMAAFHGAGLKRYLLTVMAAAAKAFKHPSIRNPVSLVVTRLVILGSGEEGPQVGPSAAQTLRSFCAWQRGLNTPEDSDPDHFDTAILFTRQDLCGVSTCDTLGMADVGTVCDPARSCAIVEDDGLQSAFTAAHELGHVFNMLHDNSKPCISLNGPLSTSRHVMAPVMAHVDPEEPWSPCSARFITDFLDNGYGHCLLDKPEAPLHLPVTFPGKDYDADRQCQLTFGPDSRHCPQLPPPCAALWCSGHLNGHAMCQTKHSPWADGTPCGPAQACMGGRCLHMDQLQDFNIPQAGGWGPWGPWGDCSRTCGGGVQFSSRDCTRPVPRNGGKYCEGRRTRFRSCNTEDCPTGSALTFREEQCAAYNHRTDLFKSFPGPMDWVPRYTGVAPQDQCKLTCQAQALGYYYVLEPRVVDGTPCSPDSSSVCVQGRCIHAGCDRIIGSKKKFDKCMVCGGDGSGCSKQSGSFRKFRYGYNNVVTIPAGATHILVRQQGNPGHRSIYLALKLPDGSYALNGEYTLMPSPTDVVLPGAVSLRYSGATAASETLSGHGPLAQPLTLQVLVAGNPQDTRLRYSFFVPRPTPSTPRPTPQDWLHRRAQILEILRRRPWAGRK
# B1: ISVD 02F03: immunoglobulin single variable domain which specifically binds ADAMTS5 (protein)
# VHH: EVQLVESGGGVVQPGGSLRLSCAASGRTVSSYAMGWFRQAPGKEREFVAGISRSAERTYYVDSLKGRFTISRDNSKNTVYLQMNSLRPEDTALYYCAADLDPNRIFSREEYAYWGQGTLVTVSS
# modifications: Description of Artificial Sequence: Synthetic anti-ADAMTS5 immunoglobulin single variable domain (ISVD)
# Experiments:
# bovine ADAMTS5 = assay: SPR-based off-rate analysis, bovine ADAMTS5; assay type: binding; details: Experiment 3
# Procedure: Species cross-reactivity was initially evaluated via SPR-based off-rate analysis on a Biacore T100 instrument. Polypeptides were tested for binding to human, cynomolgus monkey (“cyno”), guinea pig, mouse, and bovine ADAMTS5. To this end, recombinant ADAMTS5 was immobilized onto a CM5 chip via amine coupling using EDC and NHS. Purified ISVD 02F03 was injected for 2 minutes at a concentration of 100 nM and allowed to dissociate for 15 min at a flow rate of 45 μl/min. Off-rate for each individual ADAMTS5 was determined by fitting a 1:1 interaction model (Langmuir model) onto the individual dissociation curves using the BIA Evaluation software. As a reference, off-rates on human ADAMTS5 were determined in each experiment.
# human ADAMTS5 [1] = target: T1, human ADAMTS5; assay: AlphaLISA based human ADAMTS5 assay; assay type: biochemical
# Procedure: (§1) In short, a periplasmic extract of ISVD 02F03 was tested for binding to recombinant human ADAMTS5 by binding ELISA. Next, it was confirmed that ISVD 02F03 was able to prevent ADAMTS5-mediated cleavage of Aggrecan in a FRET-based human ADAMTS5 enzymatic assay. Next to the FRET-based assay, an AlphaLISA (Perkin Elmer, Waltham, MA, US) based human ADAMTS5 assay with a biotinylated 43-mer Aggrecan oligopeptide as substrate was performed. Upon ADAMTS5 cleavage of this substrate, a biotinylated ARGSV neo-epitope product is released and can be detected by streptavidin-AlphaScreen donor beads and an α-neo-epitope (“ARGSV”) antibody captured on anti-mouse IgG-coated AlphaLISA acceptor beads, resulting in the generation of a luminescence AlphaScreen signal upon laser excitation. To determine the ability of ISVD 02F03 to prevent ADAMTS5-mediated cleavage of the substrate, the decrease in signal was analysed in function of ISVD 02F03 concentration and IC50 values were calculated.
# human ADAMTS4 = target: T2, human ADAMTS4; assay: human ADAMTS4 AlphaLISA; assay type: biochemical; details: data not shown
# Procedure: To confirm the selectivity of ISVD 02F03 for ADAMTS5, inhibition of the enzymatic activity of MMP1, MMP14 and ADAMTS4 was evaluated via FRET-based assays and a human ADAMTS4 AlphaLISA, with the respective enzymes.
# To evaluate inhibition of human ADAMTS4, an assay similar to the human ADAMTS5 AlphaLISA was carried out, essentially as described in Example 2.1, but using human ADAMTS4 (R&D Systems, Minneapolis, US; cat #4307-AD). To determine the ability of ISVD 02F03 to prevent human ADAMTS4-mediated cleavage of the substrate, the decrease in signal was analysed in function of ISVD 02F03 concentration and IC50 values were calculated.
# human ADAMTS5 [2] = target: T1, human ADAMTS5; assay: FRET-based human ADAMTS5 enzymatic assay; assay type: biochemical
# Procedure: as §1
molecule,measurement,setting,value
B1,"SPR based off-rate, kd, Bovine ADAMTS-5",bovine ADAMTS5,4.3e-05 s⁻¹
same,Human AlphaLISA % inhibition,human ADAMTS5 [1],100%
same,inhibition of human ADAMTS4 activity,human ADAMTS4,did not show any inhibitory activity
same,Human FRET % inhibition,human ADAMTS5 [2],89%
